Assay [1] concerns the target T1, Biotin PSGL-1(42-62) peptide, unmodified (human, C-terminal Lys-biotin).
T1 construct: Residues 42-62 followed by GGGK-biotin; also called WT; wild-type
T1 peptide: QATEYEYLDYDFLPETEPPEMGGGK
Put plainly: ELISA, plate-bound peptide. (In an ELISA, binding on a coated surface is turned into a signal by an enzyme label.)

For assay [2], the target named is T2, PSGL-1 endogenously expressed on HL-60 cells (UniProt Q14242 42-412).
T2 construct: whole, on cells
T2 sequence (looked up): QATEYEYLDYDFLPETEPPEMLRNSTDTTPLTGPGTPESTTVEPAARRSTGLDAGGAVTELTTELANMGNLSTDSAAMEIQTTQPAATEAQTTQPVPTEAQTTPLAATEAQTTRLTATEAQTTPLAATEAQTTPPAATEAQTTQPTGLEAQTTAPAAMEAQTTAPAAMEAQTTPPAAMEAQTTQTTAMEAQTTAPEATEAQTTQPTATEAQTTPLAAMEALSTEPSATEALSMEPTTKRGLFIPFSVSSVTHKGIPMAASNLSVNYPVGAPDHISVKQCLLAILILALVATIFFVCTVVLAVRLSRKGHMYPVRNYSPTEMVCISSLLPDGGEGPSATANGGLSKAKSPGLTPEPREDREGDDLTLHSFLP
Put plainly: flow cytometry on HL-60 cells.

For assay [3], the target named is T1, Biotin PSGL-1(42-62) peptide, unmodified. Kind of assay: capture ELISA; against 3 x sY peptide. In short, it runs like this:
(§1)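 Direct format: anti-PSGL-1 mAb at a single concentration (2–500 nM) or serially diluted (0.002–100 nM) on immobilized target, detected with HRP anti-IgG and TMB at A450; 45 min steps at 37° C. Capture format: coated mAb (3 ug/mL) binds biotinylated unmodified or sulfotyrosine peptide (3 nM–3 uM), detected with HRP-streptavidin.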

Assay [4] has the same target. Put plainly: ELISA, plate-bound mAb captures biotin peptide. The method in brief:
as §1

Some results are limits rather than exact numbers.

B1: 20I15 (antibody, V domains shown)
VH: EVKLVESGGGLVQPGGSLSLSCAASGFTFTDYYMSWVRQPPGKALEWLGFIRNKANGYTTEYSASVKGRFTISRDNSQSILYLQMNALRAEDSATYYCARTYLRRGYFDVWGTGTTVTVSS
VL: DIVLTQSPASLAVSLGQRATISCRASKSVSTSGYSYMHWFQQKPGQPPKLLIYLASNLESGVPARFSGSGSGTDFTLNIHPVEEEDAATYYCQHSRELPLTFGAGTKLELK
notes: From mouse immunisation; only variable domains given; also called 20115
With B1, the “fold weaker binding than to sulfotyrosine PSGL-1 42-62” value in assay [1] is over 50 fold. Besides, the concentration giving a half-maximal response (EC50) (commonly the midpoint of the concentration-response curve) is 0.0014 µM in assay [2] and about 3 µM in assay [4]. Further, the “EC50/EC50 3x(SO3)Y” value in assay [3] was about 10 fold.

Source of the values: US20220396632A1 (VERSEAU THERAPEUTICS, published 2022).
